The text below walks through data of US9371393B2, “Class I anti-CEA antibodies and uses thereof” (Immunomedics, Inc., priority 2009, dated 2016).

Data set [1] is described as follows: Stability of 18F-labeled IMP 272 in PBS. In kind it is physicochemical. To be noted: room temperature, 150 μL PBS, ~1 hr. The protocol: F-18 Labeling of IMP 272—A 3 μL aliquot of the aluminum stock solution was placed in a REACTI-VIAL™ and mixed with 50 μL ^18F (as received) and 3 μL of the IMP 272 solution. The solution was heated in a heating block at 110° C. for 15 min and analyzed by reverse phase HPLC. […] An additional 10 μL of the IMP 272 solution was added to the reaction and it was heated again and analyzed by reverse phase HPLC (not shown). […] The remainder of the peptide solution was incubated at room temperature with 150 μL PBS for ˜1 hr and then examined by reverse phase HPLC.

Data set [2] can be described thus: Stability of purified 18F-labeled IMP 272 in water. In kind it is physicochemical. To be noted: 25° C., 40 min. The protocol:
The labeled peptide was purified by applying the labeled peptide solution onto a 1 cc (30 mg) WATERS® HLB column (Part #186001879) and washing with 300 μL water to remove unbound F-18. The peptide was eluted by washing the column with 2×100 μL 1:1 EtOH/H2O. The purified peptide was incubated in water at 25° C. and analyzed by reverse phase HPLC (not shown). […] After 40 min incubation in water about 17% of the ^18F was released from the peptide, while 83% was retained (not shown).

Data set [3] concerns hMN-14×679. Description: Antibody binding of 18F-labeled IMP 272 by size exclusion HPLC, hMN-14×679. The protocol:
(§1) The peptide (16 μL 2 mM IMP 272, 48 μg) was labeled with ^18F and analyzed for antibody binding by size exclusion HPLC.
In general terms: In gel filtration, larger molecules generally elute earlier.

Data set [4] concerns hMN-14×734. Description: Antibody binding of 18F-labeled IMP 272 by size exclusion HPLC, hMN-14×734. Here is the method:
as §1

[ ]: non-standard residue; d: D form. The star is where a group is joined. HSG = histaminyl-succinyl-glycine, O=C(CCC(=O)NCC(=O)*)NCCc1c[nH]cn1; DTPA = O=C(O)CN(CCN(CC(=O)O)CC(=O)O)CCN(CC(=O)O)CC(=O)*

Consider “DTPA-Gln-Ala-Lys(HSG)-D-Tyr-Lys(HSG)-NH2 ({DTPA}-QAK(HSG)[dY]K(HSG)-NH2; SMILES C[C@H](NC(=O)[C@H](CCC(N)=O)NC(=O)CN(CCN(CCN(CC(=O)O)CC(=O)O)CC(=O)O)CC(=O)O)C(=O)N[C@@H](CCCCNC(=O)CNC(=O)CCC(=O)NCCc1c[nH]cn1)C(=O)N[C@H](Cc1ccc(O)cc1)C(=O)N[C@@H](CCCCNC(=O)CNC(=O)CCC(=O)NCCc1c[nH]cn1)C(N)=O) [^18F-labeled IMP 272]”, for which, in data set [1], the “^18F still attached to the peptide” value stood at 42% and the “^18F unbound” value is reported as 58%. Moreover, in data set [2], the “^18F released from the peptide” value was “about 17%” and the “^18F retained” value was 83%. The “binding to hMN-14×679” value in data set [3] is reported as “bound”. Moreover, the “binding to irrelevant bispecific antibody hMN-14×734” value in data set [4] is “did not bind”.
